Usually Kd stands for the free concentration of one partner at which half of the binding sites on the other are occupied at equilibrium, for simple one-to-one binding. Low values mean a tighter complex, high ones a looser complex. Broadly, the koff is a measure of how fast the partners let go of each other. One may read the kon as a measure of how fast the partners come together. Lower therefore signals slow association.

This is an account of results in patent US20240301061A1.

The target of assay [1] is CD3ε/δ (UniProt P07766). Put plainly: SPR, antibody captured on anti-human Fc surface. (In general: SPR reads the build-up and loss of mass on a sensor chip optically.)
Sequence of CD3ε/δ (P07766 23-126, stated change not applied, chain 1 of 2): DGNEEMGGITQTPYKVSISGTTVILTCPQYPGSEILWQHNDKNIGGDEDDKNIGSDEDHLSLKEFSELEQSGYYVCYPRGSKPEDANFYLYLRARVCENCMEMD
Sequence of CD3ε/δ (P04234 22-105, stated change not applied, chain 2 of 2, further chain): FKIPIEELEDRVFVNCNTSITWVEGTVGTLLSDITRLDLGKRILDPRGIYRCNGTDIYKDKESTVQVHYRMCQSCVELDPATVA
Assay [2] concerns the target CD3ε/δ (UniProt P07766). The experiment in a line: SPR.

B1: chimeric sp34 (antibody, V domains shown)
VH: EVQLVESGGGLVQPKGSLKLSCAASGFTFNTYAMNWVRQAPGKGLEWVARIRSKYNNYATYYADSVKDRFTISRDDSQSILYLQMNNLKTEDTAMYYCVRHGNFGNSYVSWFAYWGQGTLVTVSS
VL: QAVVTQESALTTSPGETVTLTCRSSTGAVTTSNYANWVQEKPDHLFTGLIGGTNKRAPGVPARFSGSLIGDKAALTITGAQTEDEAIYFCALWYSNLWVFGGGTKLTVL
As to B1, in the assay with CD3ε/δ [1], the Kd turned out to be 27.1 nM, the koff came out at 0.00296 s⁻¹ and the kon was 109000 M⁻¹ s⁻¹.

B2: humanized sp34 scFv BG561P (Fc fusion, not shown: a dimerising Fc or GST)
scFv: EVQLVESGGGLVQPGGSLRLSCAASGFTFNTYAMNWVRQAPGKGLEWVARIRSKYNNYATYYADSVKDRFTISRDDAKNSLYLQMNSLRAEDTAVYYCVRHGNFGNSYVSWFAYWGQGTLVTVSSGGGGSGGGGSGGGGSEIVLTQSPATLSVSPGERATLSCRSSTGAVTTSNYANWVQQKPGQAPRGLIGGTNKRAPGIPARFSGSLSGDEATLTISSLQSEDFAVYYCALWYSNLWVFGGGTKVEIK
In the assay with CD3ε/δ [2], B2 displayed a Kd of 25.9 nM, a koff of 0.00188 s⁻¹ and a kon of 72500 M⁻¹ s⁻¹.
